According to patent US20100184614, “MICROARRAY SYSTEMS AND METHODS FOR IDENTIFYING DNA-BINDING PROTEINS” (published 2010):

Molecular target: Estrogen receptor alpha (UniProt P03372 P03372:1-595)
Experiment: EMSA; column gel, 30 min
Conditions: tags: Invitrogen; label: IRDye 700 or Cy3; partially double-stranded; 3' single-stranded tag
Description: A similar result is obtained using recombinant estrogen receptor alpha (ER-alpha) protein. ER-alpha is obtained from INVITROGEN® and mixed with YZ11 (its specific probe) labeled with IR Dye 700. The mixture was then loaded on the column gel and run for 30 minutes (FIG. 10).

Sequence of Estrogen receptor alpha (P03372 whole entry, one chain of several): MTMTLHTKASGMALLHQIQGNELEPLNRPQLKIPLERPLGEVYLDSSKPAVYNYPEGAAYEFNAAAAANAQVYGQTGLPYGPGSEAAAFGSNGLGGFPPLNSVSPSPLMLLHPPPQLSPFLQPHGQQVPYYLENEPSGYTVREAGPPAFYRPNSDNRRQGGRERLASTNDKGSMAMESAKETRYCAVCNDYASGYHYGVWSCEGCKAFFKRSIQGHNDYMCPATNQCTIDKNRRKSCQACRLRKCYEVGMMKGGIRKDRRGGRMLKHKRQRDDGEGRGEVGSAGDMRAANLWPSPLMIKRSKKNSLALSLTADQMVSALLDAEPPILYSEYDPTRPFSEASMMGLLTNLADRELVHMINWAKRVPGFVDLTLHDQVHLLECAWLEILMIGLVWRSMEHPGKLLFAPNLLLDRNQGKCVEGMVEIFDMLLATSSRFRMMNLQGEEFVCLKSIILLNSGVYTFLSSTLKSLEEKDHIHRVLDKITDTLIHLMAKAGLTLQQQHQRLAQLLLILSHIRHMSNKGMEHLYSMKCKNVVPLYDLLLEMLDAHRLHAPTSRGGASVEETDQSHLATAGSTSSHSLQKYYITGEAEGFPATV

B1: YZ-11 (Table 17) (mixed)
DNA 1: CCTGCCAGGTCGCGCTGCCCTCCTTCTACCATGCCTTAGGAGAATTGTTTTGTTT
DNA 2: GGTAGAAGGAGGGCAGCGCGACCTGGCAGG
binding result: binds
